B1: Rab5 GDP/GTP exchange factor (Homo sapiens), Q9UJ41 (parent)
chain: MSLKSERRGIHVDQSDLLCKKGCGYYGNPAWQGFCSKCWREEYHKARQKQIQEDWELAERLQREEEEAFASSQSSQGAQSLTFSKFEEKKTNEKTRKVTTVKKFFSASSRVGSKKEIQEAKAPSPSINRQTSIETDRVSKEFIEFLKTFHKTGQEIYKQTKLFLEGMHYKRDLSIEEQSECAQDFYHNVAERMQTRGKVPPERVEKIMDQIEKYIMTRLYKYVFCPETTDDEKKDLAIQKRIRALRWVTPQMLCVPVNEDIPEVSDMVVKAITDIIEMDSKRVPRDKLACITKCSKHIFNAIKITKNEPASADDFLPTLIYIVLKGNPPRLQSNIQYITRFCNPSRLMTGEDGYYFTNLCCAVAFIEKLDAQSLNLSQEDFDRYMSGQTSPRKQEAESWSPDACLGVKQMYKNLDLLSQLNERQERIMNEAKKLEKDLIDWTDGIAREVQDIVEKYPLEIKPPNQPLAAIDSENVENDKLPPPLQPQVYAG
B2: Unconventional myosin-VI (Homo sapiens), Q9UM54 (parent)
chain: MEDGKPVWAPHPTDGFQMGNIVDIGPDSLTIEPLNQKGKTFLALINQVFPAEEDSKKDVEDNCSLMYLNEATLLHNIKVRYSKDRIYTYVANILIAVNPYFDIPKIYSSEAIKSYQGKSLGTRPPHVFAIADKAFRDMKVLKMSQSIIVSGESGAGKTENTKFVLRYLTESYGTGQDIDDRIVEANPLLEAFGNAKTVRNNNSSRFGKFVEIHFNEKSSVVGGFVSHYLLEKSRICVQGKEERNYHIFYRLCAGASEDIREKLHLSSPDNFRYLNRGCTRYFANKETDKQILQNRKSPEYLKAGSMKDPLLDDHGDFIRMCTAMKKIGLDDEEKLDLFRVVAGVLHLGNIDFEEAGSTSGGCNLKNKSAQSLEYCAELLGLDQDDLRVSLTTRVMLTTAGGTKGTVIKVPLKVEQANNARDALAKTVYSHLFDHVVNRVNQCFPFETSSYFIGVLDIAGFEYFEHNSFEQFCINYCNEKLQQFFNERILKEEQELYQKEGLGVNEVHYVDNQDCIDLIEAKLVGILDILDEENRLPQPSDQHFTSAVHQKHKDHFRLTIPRKSKLAVHRNIRDDEGFIIRHFAGAVCYETTQFVEKNNDALHMSLESLICESRDKFIRELFESSTNNNKDTKQKAGKLSFISVGNKFKTQLNLLLDKLRSTGASFIRCIKPNLKMTSHHFEGAQILSQLQCSGMVSVLDLMQGGYPSRASFHELYNMYKKYMPDKLARLDPRLFCKALFKALGLNENDYKFGLTKVFFRPGKFAEFDQIMKSDPDHLAELVKRVNHWLTCSRWKKVQWCSLSVIKLKNKIKYRAEACIKMQKTIRMWLCKRRHKPRIDGLVKVGTLKKRLDKFNEVVSVLKDGKPEMNKQIKNLEISIDTLMAKIKSTMMTQEQIQKEYDALVKSSEELLSALQKKKQQEEEAERLRRIQEEMEKERKRREEDEKRRRKEEEERRMKLEMEAKRKQEEEERKKREDDEKRIQAEVEAQLARQKEEESQQQAVLEQERRDRELALRIAQSEAELISDEAQADLALRRSLDSYPVSKNDGTRPKMTPEQMAKEMSEFLSRGPAVLATKAAAGTKKYDLSKWKYAELRDTINTSCDIELLAACREEFHRRLKVYHAWKSKNKKRNTETEQRAPKSVTDYDFAPFLNNSPQQNPAAQIPARQREIEMNRQQRFFRIPFIRPADQYKDPQSKKKGWWYAHFDGPWIARQMELHPDKPPILLVAGKDDMEMCELNLEETGLTRKRGAEILPRQFEEIWERCGGIQYLQNAIESRQARPTYATAMLQSLLK

One assay covers variants of B1. As to conditions: with ubb_human UBB.
Turning to Y25F, the “effect of a mutation on the interaction” value was “decreasing interaction”.

The variants in another assay derive from B1. As to conditions: with ubb_human UBB. The source holds these as a separate data set.
Take A58G: the “effect of a mutation on the interaction” value was “decreasing interaction”.

Variants of B2 are the subject of the next assay. As to conditions: with ubb_human UBB.
Consider A1013G, for which the “effect of a mutation on the interaction” value was “decreasing interaction”.
